1 substance from patent publication US20090232787A1, “CARCINOGEN DETOXIFICATION COMPOSITION AND METHOD” (Gene Research Lab. Co., Ltd., priority 2004, published 2009) can be followed below.

The subject of data set [1] is lung tumors. It is filed as in vivo. The following applies: GNMT-overexpressing transgenic mice, 375 μg B(a)P/7g body weight everyday IP for 15 days, sacrificed 78 weeks after the challenge. As to the method:
• 1.1 pPEPCKex-flGNMT Plasmid Construction: pPEPCKex-flGNMT plasmid was prepared by using a pPEPCKex vector (concluding with phosphoenolpyruvate carboxykinase promoter (PEPCK, Valera et al., 1994), specific expressed in liver and kidney) and pSK-flGNMT (concluding with full length human GNMT cDNA) plasmid. Both plasmids were digested with Not I and Xho I. Insert was ligated to the vector and transformation into the competent cell (JM109). The clones were selected with ampicillin and screened with PCR to check pPEPCKex-flGNMT plasmid (FIG. 1). • 1.2 Production of Transgenic Mice: pPEPCKex-flGNMT plasmid was amplified and digested with Asc I to linear form (4.3 Kb). The linear form pPEPCKex-flGNMT gene was sent into FVB stain mice 0.5 days embryo by pronuclei microinjection. The embryos were sent into the foster mother (ICR strain mice). After 18-21 days, the mice were bred and screened with PCR to check the transgenic mice. • 1.3 Expression human GNMT in liver and kidney of transgenic mice: To check the PEPCK promoter specific expression organ, we used northern blot (FIG. 2) and western blot (FIG. 3). The human GNMT was specific expression in liver and kidney. […]

Data set [2] deals with Cytochrome p450 1A1 (CYP1A1). As to the kind of experiment: Aryl hydrocarbon hydroxylase (AHH) assay. The following applies: cells treated with 9 μM BaP. As to the method:
• 1.1 Cell lines and culture. Two HCC cell lines-Huh 7 (13) and HA22TNGH (14)—and one human hepatoblastoma cell line-Hep G2 (15)—were used in this study. Cells were cultured in Dulbecco's modified Eagle's medium (DMEM, GIBCO BRL, Grand Island, N.Y.) with 10% heat-inactivated fetal bovine serum (HyClone, Logan, Utah), penicillin (100 IU/ml), streptomycin (100 μg/ml), nonessential amino acids (0.1 mM), fungizone ([…]) and L-glutamine (2 mM) in a humidified incubator with 5% CO2. • 1.2 Construction of pGNMT, pGNMT-antisense and pGNMT-His-short plasmids. To construct plasmid-pGNMT containing the CMV promoter and GNMT cDNA fragment, we used plasmid-pFLAG-CMV-5 (Kodak, Rochester, N.Y.) as a vector and the pBluescript-GNMT-9-1-2 phagemid (8) as the PCR template for generating the insert. A 0.9 kb DNA fragment containing the GNMT cDNA sequence and restriction enzyme sites on both ends was amplified. All PCR conditions were as recommended by the manufacturer (Perkin Elmer, Norwalk, Conn.) with two exceptions: 2 mM of MgCl2 and 150 nM of primer. Twenty amplification cycles were performed using Perkin Elmer's Amplitaq Gold Taq DNA polymerase with DNA Thermal Cycler. […] RP concentration was measured with a BCA protein assay (Pierce, Rockford, Ill.); purity was tested by running samples on a 12.5% SDS-polyacrylamide mini-gel (Bio-Rad Laboratories, Richmond, Calif.). • 1.4 Transfection. […]

Data set [3] relates to CYP1A1 gene. The following applies: following BaP treatment; preliminary data.

Consider “GNMT: Glycine N-methyltransferase (EC2.1.1.20), SEQ ID No: 1, SAM-dependent methyltransferase binding benzo(a)pyrene”, for which, in data set [1], the “mice that generated lung tumors” value turned out to be 30%. Besides, the “reduction in CYP1A1 enzyme activity in GNMT-expressing cells (SCG2-1-1) compared to SCG2-neg cells” value in data set [2] worked out at 45%. Besides, the “reduction of CYP1A1 gene expression in SCG2-1-1 cells compared to Hep G2 cells” value in data set [3] was “approximately 20%”.
